The test concerns the target biotin-labeled cMet (UniProt P08581). Nature of the test: indirect ELISA: antibody captured on anti-IgG Fc coated plate, biotin-labeled cMet detected with streptavidin-HRP, OD450; fit value of a flat control curve, unit taken from the axis. On the technique in general: An ELISA detects its analyte on a solid surface through an enzyme-linked reagent.

Sequence of biotin-labeled cMet (P08581 25-932 limits assumed): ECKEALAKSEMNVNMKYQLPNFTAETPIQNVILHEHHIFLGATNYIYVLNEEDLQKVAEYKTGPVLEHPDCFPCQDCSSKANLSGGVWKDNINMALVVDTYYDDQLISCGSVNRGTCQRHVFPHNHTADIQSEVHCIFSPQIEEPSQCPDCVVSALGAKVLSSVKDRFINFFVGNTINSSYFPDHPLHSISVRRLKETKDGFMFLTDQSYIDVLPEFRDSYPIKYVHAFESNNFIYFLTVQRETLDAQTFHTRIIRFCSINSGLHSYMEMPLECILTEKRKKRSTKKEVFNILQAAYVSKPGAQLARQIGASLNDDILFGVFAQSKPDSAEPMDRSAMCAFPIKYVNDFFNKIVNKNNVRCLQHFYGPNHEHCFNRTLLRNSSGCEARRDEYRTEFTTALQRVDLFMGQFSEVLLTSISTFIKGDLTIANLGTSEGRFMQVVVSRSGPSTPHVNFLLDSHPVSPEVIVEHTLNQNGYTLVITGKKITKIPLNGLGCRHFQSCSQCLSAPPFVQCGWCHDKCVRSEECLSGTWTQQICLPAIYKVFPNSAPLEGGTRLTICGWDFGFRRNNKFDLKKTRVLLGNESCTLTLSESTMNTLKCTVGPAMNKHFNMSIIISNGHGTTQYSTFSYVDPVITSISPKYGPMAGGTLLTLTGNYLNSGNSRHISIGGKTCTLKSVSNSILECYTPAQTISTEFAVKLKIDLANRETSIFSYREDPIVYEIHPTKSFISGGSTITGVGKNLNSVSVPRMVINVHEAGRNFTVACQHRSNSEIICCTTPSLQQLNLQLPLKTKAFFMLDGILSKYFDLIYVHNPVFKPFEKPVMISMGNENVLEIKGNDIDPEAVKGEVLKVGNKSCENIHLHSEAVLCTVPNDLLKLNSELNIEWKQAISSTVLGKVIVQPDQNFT

In general, IC50 refers to the concentration that gives 50% inhibition. A low value points to inhibition by little substance. Substance IL-1β (antibody) displayed an IC50 of 1.1 nM.

Values taken from patent publication US20140221622A1.
